The source of these data is article PMC12774752, “4E-BP1 differentially regulates translation of a subset of human mRNAs” (The Journal of Biological Chemistry, 2025).

B1: m7G FGF-9 5'UTR (structured_RNA)
RNA: GAAACAGCAGAUUACUUUUAUUUAUGCAUUUAAUGGAUUGAAGAAAAGAACCUUUUUUUUUCUCUCUCUCUCUGCAACUGCAGUAAGGGAGGGGAGUUGGAUAUACCUCGCCUAAUAUCUCCUGGGUUGACACCAUCAUUAUUGUUUAUUCUUGUGCUCCAAAAGCCGAGUCCUCUG
modifications: 5' m7G cap
B2: ApppG FGF-9 5'UTR (structured_RNA)
RNA: B1 RNA
modifications: 5' ApppG cap (non-functional)
B3: m7G p53A 5'UTR (structured_RNA)
RNA: UCUAGAGCCACCGUCCAGGGAGCAGGUAGCUGCUGGGCUCCGGGGACACUUUGCGUUCGGGCUGGGAGCGUGCUUUCCACGACGGUGACACGCUUCCCUGGAUUGGCAGCCAGACUGCCUUCCGGGUCACUGCC
modifications: 5' m7G cap
B4: ApppG p53A 5'UTR (structured_RNA)
RNA: B3 RNA
modifications: 5' ApppG cap (non-functional)
B5: m7G HIF-1alpha 5'UTR (structured_RNA)
RNA: AGUGCACAGUGCUGCCUCGUCUGAGGGGACAGGAGGAUCACCCUCUUCGUCGCUUCGGCCAGUGGUCGGGCUGGGCCCUGACAAGCCACCUGAGGAGAGGCUCGGAGCCGGGCCCGGACCCCGGCGAUUGCCGCCCGCUUCUCUCUAGUCUCACGAGGGGUUUCCCGCCUCGCACCCCCACCUCUGGACUUGCCUUUCCUUCUCUUCUCCGCGUGUGGAGGGAGCCAGCGCUUAGGCCGGAGCGAGCCUGGGGGCCGCCCGCCGUGAAGACAUCGCGGGGACCGAUUCACC
modifications: 5' m7G cap
B6: ApppG HIF-1alpha 5'UTR (structured_RNA)
RNA: B5 RNA
modifications: 5' ApppG cap (non-functional)
B7: m7G p53B 5'UTR (structured_RNA)
RNA: AUGGAGGAGCCGCAGUCAGAUCCUAGCGUCGAGCCCCCUCUGAGUCAGGAAACAUUUUCAGACCUAUGGAAACUACUUCCUGAAAACAACGUUCUGUCCCCCUUGCCGUCCCAAGCA
modifications: 5' m7G cap
B8: m7G beta-actin 5'UTR (structured_RNA)
RNA: GGACCGCCGAGACCGCGUCCGCCCCGCGAGCACAGAGCCUCGCCUUUGCCGAUCCGCCGCCCGCCACACCCGCCGCCAGCUCAC
modifications: 5' m7G cap
B9: fluorescein-labeled 4E-BP1 peptide (peptide)
peptide: PGGTRIIYDRK(FITC)FLMECRNSP
notes: also called FITC-4E-BP1 peptide; 4E-BP1-FITC-Peptide; source: synthetic peptide, bought: GenScript (>=98% purity)

No end group written: not given here. *: point of attachment. FITC = O=C1OC2(c3ccc(O)cc3Oc3cc(O)ccc32)c2ccc(NC(=S)*)cc21

eIF4E, sequence (P06730 whole entry): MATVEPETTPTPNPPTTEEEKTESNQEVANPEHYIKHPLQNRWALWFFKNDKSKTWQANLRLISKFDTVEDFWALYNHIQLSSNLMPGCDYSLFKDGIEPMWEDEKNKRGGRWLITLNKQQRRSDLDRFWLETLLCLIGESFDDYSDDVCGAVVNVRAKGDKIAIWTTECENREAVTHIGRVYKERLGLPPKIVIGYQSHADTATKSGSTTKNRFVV

One data set deals with T1, eIF4GI557-1599 (human, UniProt Q04637 557-1599). The data set is described as follows: fluorescence anisotropy; mRNA pre-bound by eIF4E•4E-BP1; 20 mM HEPES-KOH pH 7.5, 200 mM KCl, 1 mM MgCl2, 25 °C; 10 nM labeled mRNA; pre-assembly with 0.5 uM eIF4E and 1 uM 4E-BP1. Conditions: protein: recombinant; tags: N-terminal 6xHis, TEV-cleaved; label: 3' fluorescein; structured 5'UTR. (In fluorescence polarisation assays a small probe gives low polarisation when free and higher when bound to something large.)
T1 sequence (Q04637 557-1599): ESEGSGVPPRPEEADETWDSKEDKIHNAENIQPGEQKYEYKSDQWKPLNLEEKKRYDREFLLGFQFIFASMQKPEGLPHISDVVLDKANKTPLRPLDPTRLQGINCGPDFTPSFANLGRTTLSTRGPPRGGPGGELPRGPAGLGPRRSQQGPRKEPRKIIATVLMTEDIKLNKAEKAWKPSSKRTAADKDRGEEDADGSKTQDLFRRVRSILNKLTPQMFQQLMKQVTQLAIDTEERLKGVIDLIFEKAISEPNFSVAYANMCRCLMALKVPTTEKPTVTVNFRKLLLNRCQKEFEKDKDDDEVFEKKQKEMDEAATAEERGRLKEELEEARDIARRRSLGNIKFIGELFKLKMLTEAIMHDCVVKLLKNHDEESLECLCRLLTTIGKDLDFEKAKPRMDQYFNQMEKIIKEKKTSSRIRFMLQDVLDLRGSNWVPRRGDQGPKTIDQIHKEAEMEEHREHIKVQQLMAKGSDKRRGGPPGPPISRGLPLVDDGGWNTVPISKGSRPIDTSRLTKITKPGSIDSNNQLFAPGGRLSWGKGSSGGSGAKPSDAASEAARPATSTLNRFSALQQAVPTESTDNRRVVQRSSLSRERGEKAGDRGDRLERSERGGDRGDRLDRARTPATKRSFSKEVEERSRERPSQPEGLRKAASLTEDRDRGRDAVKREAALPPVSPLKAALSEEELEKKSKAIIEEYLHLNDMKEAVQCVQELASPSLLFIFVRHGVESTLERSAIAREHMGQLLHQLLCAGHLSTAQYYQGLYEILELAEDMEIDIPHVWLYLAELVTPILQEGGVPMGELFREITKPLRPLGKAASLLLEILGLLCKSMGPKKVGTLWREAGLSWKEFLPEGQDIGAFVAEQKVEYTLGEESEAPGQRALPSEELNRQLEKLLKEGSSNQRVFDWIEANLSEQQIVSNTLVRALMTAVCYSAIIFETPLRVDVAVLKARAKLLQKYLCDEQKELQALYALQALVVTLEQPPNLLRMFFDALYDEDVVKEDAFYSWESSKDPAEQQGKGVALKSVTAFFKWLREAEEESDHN
As to B1, the equilibrium dissociation constant (Kd) (commonly the constant that tells how readily two partners part at equilibrium) worked out at 24 ± 0.9 nM.
Take B2: the Kd came to 13 ± 0.6 nM.
Consider B3, for which the Kd was 31 ± 5.9 nM.
The same measure, in the same setting: with B4 the figure was 25 ± 1.1 nM.
The same measure, in the same setting: the figure for B5 is 15 ± 3.4 nM; for B6 it is 25 ± 1.8 nM; for B7 it is 18 ± 0.3 nM.

In another data set the target is T2, eIF4GI557-1599;eIF4A (human;human?, UniProt Q04637;P60842 557-1599;1-406, |). The data set is described as above. Conditions: protein: recombinant;recombinant, tags: N-terminal 6xHis, TEV-cleaved;N-terminal His-MBP, copies: 1;1, label: 3' fluorescein, structured 5'UTR.
T2 sequence (Q04637 557-1599, chain 1 of 2): as the sequence (Q04637 557-1599) above
T2 sequence (P60842 whole entry, chain 2 of 2): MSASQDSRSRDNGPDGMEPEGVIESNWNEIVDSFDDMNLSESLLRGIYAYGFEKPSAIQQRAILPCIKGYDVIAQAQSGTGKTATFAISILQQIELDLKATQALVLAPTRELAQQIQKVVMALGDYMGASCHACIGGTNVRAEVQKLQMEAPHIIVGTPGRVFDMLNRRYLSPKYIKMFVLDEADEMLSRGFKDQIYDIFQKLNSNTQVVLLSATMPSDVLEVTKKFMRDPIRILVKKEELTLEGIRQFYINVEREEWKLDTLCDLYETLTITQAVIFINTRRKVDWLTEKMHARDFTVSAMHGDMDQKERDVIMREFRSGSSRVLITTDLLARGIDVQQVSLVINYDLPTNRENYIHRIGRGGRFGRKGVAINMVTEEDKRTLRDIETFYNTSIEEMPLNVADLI
As for B1, the Kd was 23 ± 1.3 nM.
In the case of B3, the equilibrium dissociation constant (Kd) was determined as 33 ± 0.7 nM.
As to B4, the Kd worked out at 20 ± 2 nM.
In the case of B5, the dissociation constant Kd was 20 ± 1.3 nM.
On the same count and under the same terms, with B6 the figure was 19 ± 0.6 nM; with B7, 21 ± 2.2 nM.

Still in this data set, the particulars now being: protein: recombinant;recombinant, tags: N-terminal 6xHis, TEV-cleaved;N-terminal His-MBP, copies: 1;1, label: 3' fluorescein, unstructured control.
For the molecule B8, the binding result is given as “no binding”.

The target in another data set is eukaryotic initiation factor 4E (eIF4E) (human, UniProt P06730 1-217). The data set is described as follows: fluorescence polarisation; fluorescence anisotropy; 20 nM FITC-labelled 4E-BP1 peptide, free or preincubated with 10 nM eIF4E for 20 min at 25 °C, titrated with protein (eIF4E: 200 ul of 20 nM peptide with 2.5 uM eIF4E); no mRNA; Hill-equation fit. Conditions: both partners purified.
eukaryotic initiation factor 4E (eIF4E), sequence (P06730 whole entry): as the sequence (P06730 whole entry) above
B9 showed a Kd of 5 ± 3.7 nM.

A further data set has as its target T1, eIF4GI557-1599. Put plainly: fluorescence anisotropy; mRNA pre-bound by eIF4E•FITC-4E-BP1 peptide (label on peptide); 20 mM HEPES-KOH pH 7.5, 200 mM KCl, 1 mM MgCl2, 25 °C; 10 nM labeled mRNA; pre-assembly with 0.5 uM eIF4E and 1 uM 4E-BP1. Conditions: protein: recombinant; tags: N-terminal 6xHis, TEV-cleaved; label: 3' fluorescein; structured 5'UTR.
Turning to B1, the Kd came out at 32 ± 0.3 nM.
For B2, the Kd was found to be 25 ± 1 nM.
The same measure, in the same setting: with B3 the figure was 29 ± 1.3 nM.
As to B5, the dissociation constant Kd came to 21 ± 0.7 nM.
In the case of B6, the Kd amounted to 30 ± 3.1 nM.
Turning to B7, the dissociation constant Kd was 47 ± 0.7 nM.

In another data set the target is T1, eIF4GI557-1599. Put plainly: fluorescence anisotropy; mRNA pre-bound by eIF4E•FITC-4E-BP1 peptide (label on peptide); text gives error 1.5; 20 mM HEPES-KOH pH 7.5, 200 mM KCl, 1 mM MgCl2, 25 °C; 10 nM labeled mRNA; pre-assembly with 0.5 uM eIF4E and 1 uM 4E-BP1. The note with it: protein: recombinant; tags: N-terminal 6xHis, TEV-cleaved; label: 3' fluorescein; structured 5'UTR.
As for B4, the Kd came out at 35 ± 0.5 nM.

In a further data set the target is 4E-BP1 (human, UniProt Q13541 1-118). The data set is described as follows: fluorescence anisotropy; 20 mM HEPES-KOH pH 7.5, 200 mM KCl, 1 mM MgCl2, 25 °C; 10 nM labeled mRNA; pre-assembly with 0.5 uM eIF4E and 1 uM 4E-BP1. Conditions: protein: recombinant; tags: N-terminal 6xHis, TEV-cleaved; label: 3' fluorescein; structured 5'UTR.
4E-BP1, sequence (Q13541 whole entry): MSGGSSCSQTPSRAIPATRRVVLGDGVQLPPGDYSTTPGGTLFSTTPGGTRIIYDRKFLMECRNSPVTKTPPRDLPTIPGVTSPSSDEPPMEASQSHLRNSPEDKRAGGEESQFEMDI
For B1, the binding result is on record as “no binding”.
Consider B2, for which the binding result is “no binding”.
As to B3, the binding result is given as “no binding”.
B4: the binding result is given as “no binding”.
Regarding B5, the binding result was “no binding”.
On to B6, for which the binding result was “no binding”.
On the same count and under the same terms, the entry for B7 is “no binding”.

The same data set, now with this note: protein: recombinant; tags: N-terminal 6xHis, TEV-cleaved; label: 3' fluorescein; unstructured control.
As to B8, the binding result is on record as “no binding”.

The target of the next data set is T1, eIF4GI557-1599. Described as above. Conditions: protein: recombinant; tags: N-terminal 6xHis, TEV-cleaved; label: 3' fluorescein; structured 5'UTR.
As to B1, the Kd was determined as 20 ± 2 nM.
Turning to B2, the dissociation constant Kd amounted to 28 ± 0.7 nM.
In the case of B4, the equilibrium dissociation constant (Kd) amounted to 81 ± 1.3 nM.
As for B5, the Kd turned out to be 22 ± 0.5 nM.
On to B6, for which the equilibrium dissociation constant (Kd) was 67 ± 1.8 nM.
As to B7, the dissociation constant (Kd) came to 18 ± 3.1 nM.

The same data set, now with this note: protein: recombinant; tags: N-terminal 6xHis, TEV-cleaved; label: 3' fluorescein; unstructured control.
As to B8, the binding result is recorded as “no binding”.

Another data set has as its target eIF4E (human, UniProt P06730 1-217). The description is as above. The note with it: protein: recombinant; tags: N-terminal polyHis, TEV-cleaved; label: 3' fluorescein; structured 5'UTR.
As to B1, the equilibrium dissociation constant (Kd) is 72 ± 1.6 nM.
In the case of B2, the Kd is 138 ± 4.6 nM.
For B3, the equilibrium dissociation constant (Kd) is 59 ± 7.5 nM.
As to B4, the Kd amounted to 186 ± 0.8 nM.
Regarding B5, the Kd stood at 56 ± 1.5 nM.
For the molecule B6, the Kd was determined as 199 ± 1.5 nM.
As for B7, the Kd is 54 ± 2.3 nM.

The same data set, now with this note: protein: recombinant; tags: N-terminal polyHis, TEV-cleaved; label: 3' fluorescein; unstructured control.
On to B8, for which the equilibrium dissociation constant (Kd) amounted to 28 ± 1.8 nM.

In another data set the target is eIF4E;4E-BP1 (human;human, UniProt P06730;Q13541 1-217;1-118, |). Described as above. Conditions: protein: recombinant;recombinant, tags: N-terminal polyHis, TEV-cleaved;N-terminal 6xHis, copies: 1;1, label: 3' fluorescein, structured 5'UTR.
eIF4E;4E-BP1, sequence (P06730 whole entry, chain 1 of 2): as the sequence (P06730 whole entry) above
eIF4E;4E-BP1, sequence (Q13541 whole entry, chain 2 of 2): as the sequence (Q13541 whole entry) above
With B1, the Kd was determined as 32 ± 3.9 nM.
Same read-out and setting: with B2 the figure was 87 ± 2 nM; with B3, 13 ± 1.1 nM; with B4, 45 ± 1.6 nM.
On the same count and under the same terms, with B5 the figure was 15 ± 3.4 nM; with B6, 52 ± 0.5 nM; with B7, 28 ± 2.3 nM.

Staying with this data set, now noted: protein: recombinant;recombinant, tags: N-terminal polyHis, TEV-cleaved;N-terminal 6xHis, copies: 1;1, label: 3' fluorescein, unstructured control.
As for B8, the Kd came to 12 ± 0.6 nM.

The next data set concerns the target T2, eIF4GI557-1599;eIF4A. Put plainly: fluorescence anisotropy; mRNA pre-bound by eIF4E•4E-BP1; text gives error 1.0; 20 mM HEPES-KOH pH 7.5, 200 mM KCl, 1 mM MgCl2, 25 °C; 10 nM labeled mRNA; pre-assembly with 0.5 uM eIF4E and 1 uM 4E-BP1. The note with it: protein: recombinant;recombinant, tags: N-terminal 6xHis, TEV-cleaved;N-terminal His-MBP, copies: 1;1, label: 3' fluorescein, structured 5'UTR.
Regarding B2, the Kd was found to be 15 ± 0.3 nM.

For the next data set, the target named is T2, eIF4GI557-1599;eIF4A. The data set is described as follows: fluorescence anisotropy; ATP; mRNA pre-bound by eIF4E•4E-BP1; text gives error 1.5; 20 mM HEPES-KOH pH 7.5, 200 mM KCl, 1 mM MgCl2, 25 °C; 10 nM labeled mRNA; pre-assembly with 0.5 uM eIF4E and 1 uM 4E-BP1. The note with it: protein: recombinant;recombinant, tags: N-terminal 6xHis, TEV-cleaved;N-terminal His-MBP, copies: 1;1, label: 3' fluorescein, structured 5'UTR.
As to B5, the Kd worked out at 21 ± 0.5 nM.

The next data set deals with T2, eIF4GI557-1599;eIF4A. The data set is described as follows: fluorescence anisotropy; ATP; mRNA pre-bound by eIF4E•4E-BP1; 20 mM HEPES-KOH pH 7.5, 200 mM KCl, 1 mM MgCl2, 25 °C; 10 nM labeled mRNA; pre-assembly with 0.5 uM eIF4E and 1 uM 4E-BP1. The note with it: protein: recombinant;recombinant, tags: N-terminal 6xHis, TEV-cleaved;N-terminal His-MBP, copies: 1;1, label: 3' fluorescein, structured 5'UTR.
As for B1, the dissociation constant (Kd) stood at 24 ± 1.5 nM.
B2: the Kd stood at 18 ± 1 nM.
As to B3, the equilibrium dissociation constant (Kd) worked out at 35 ± 1.3 nM.
Same read-out and setting: the figure for B4 is 16 ± 0.8 nM; for B6 it is 24 ± 4.3 nM; for B7 it is 22 ± 1.1 nM.

The next data set concerns the target T1, eIF4GI557-1599. The data set is described as follows: fluorescence anisotropy; text gives error 3.1; 20 mM HEPES-KOH pH 7.5, 200 mM KCl, 1 mM MgCl2, 25 °C; 10 nM labeled mRNA; pre-assembly with 0.5 uM eIF4E and 1 uM 4E-BP1. Conditions: protein: recombinant; tags: N-terminal 6xHis, TEV-cleaved; label: 3' fluorescein; structured 5'UTR.
B3: the dissociation constant Kd stood at 44 ± 1 nM.
